This note sets out measurements from a protein production outcome set (Wang et al. 2014).
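Note: failed if final PepcDB status was selected cloned or expressed and not failed if soluble or beyond.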

The series is described as follows: label from the status in PepcDB records.
With “MASEVVRDSLWRYFAEFVGTFILMLFGDGAVVASLVTNGTSPGYGFIMISWGFGVVLAIYAVGPISGAHINPNVTLAFAVTKRMKWRDVIPYILFQTLGAAAAAGILLAWWGSIITKMDPPPTLYAQVGASFFTEYPNPSFWGQYWPKELLLPNSASGTSLFSEVNQVFPLWIGAFAELLMTFLLLLIVLAVTDTDSPFFNQSLAPWAIGIGYVMPFLLFEAQLTGGMINEARSWGPMLALYLFGYRTGAFNFRGQYFFVYGIPDFIGGILGALFWDYVLKPYLKYLKSNNKK”, the protein production entry is on record as “failed”.

With “DQEVRLENRITFQLELVGLERVVRISAKPTKRLQEALQPILAKHGLSLDQVVLHRPGEKQPMDLENPVSSVASQTLVLDTPPDAKMSEARS”, the protein production result is reported as “not failed”.

Regarding “MYKTQKNHIRCDKQTYRLLRQLCHFSKNLYNYALYHIRQHYFKTQEYLRYESVYHLVKESEDYRLLPSQVAQQTLISVIEAFKSFLGLLRAEKEGKVEERVSMPKYLPKDGMYQIVFPKDQFKTEGKKVRLSLGRGFAKEFGVKYLYFDLPATVLGKEIREVRIIPRFNGRWFEIEYVYEDKQQLGIFDLSRYLGVDLGLDNFAAVVDTIGTAFLIEGRFLKSVNRWYNKERARLQSIYSRQGIKCGRKLALVSRKRQHIIDNFLNQAVSLIIKHCLNNQISAVVVGEMKDIKQGIELGVVNNQNFVGIPYDKFKRKLKSKCMYYGIRYVEVDESYTSQRCSRCGHVSKSSRRYRGLYVCKKCGYVVNADINGAINIVAKVAGESVVKQITSSGCVNHPVRIRVA”, the protein production result is “failed”.

Regarding “MAKKWQQRAALRRKRISFHRSTDTTSSSTAAEKGCFVVYTSDRIRFAFPISYLSNSVIQELLKISEEEFGIPTEGPITLPFDSVFLEYLIRLVQRRMDGDTEKALITSISSTRCSLPCSFQLQEHSSTRLVF”, the protein production entry is “failed”.

“MKILTVNVHAWLEENQMEKIDILARTIAEKQYDVIAMQEVNQLMNNKIIFDDIREENYAWVLLETLQKYTDTDYYLHWSNSHIGFGKYNEGVAVITRHKIKAEDEFYCTFAQSVRTISARRIVSITINYEGQDIEFYSCHMNLPNCETEDMGKNIQTILNRTQNSNLKILMGDFNTDAIGNVAAYENILSQGLFDTYVMAEKKDDGITVDKSIHGWDNDKAKKRLDYIFSNKELKVKESKVIFNNKNKEIVSDHFGIEVKIEF”: the protein production result is on record as “not failed”.

Take “MKWLKHFQSLHTKLVIVYVLLIIIGMQIIGLYFTNSLEKELTQTFKNNISQYAKQIEINIEKVYDEDNAINAQKEVQNLLNEYANRQEIEEIRFIDKDQIIMATSKQSTRSLINQKANDNSIQKALSLGEINSHTVLKDYGNGKQRVWVYNLPVKTSNDGTIGDVYIEADINDVYNQLSNINQIFIVGTGISLLITVILGFFIARTITKPITDMRNQTVEMSKGNYTQRVKIYGNDEIGELALAFNNLSKRVQEAQANTESEKRRLDSVITHMSDGIIATDRRGRVRIVNDMALTMMGTMKEDIIGDHMLKVLKLEEDFSLDEIQENNDSFLLDINENEGIIARVNFSTIVQETGFVTGYIAVLHDVTEQQQVERERREFVANVSHELRTPLTSMNSYIEALESGAWKDGELAPQFLSVTREETERMIRLVNDLLQLSKMDNESEQITKEIVDFNMFINKIINRHEMSAKDTTFVREVPTETIFTEIDPDKMTQVFDNVITNAMKYSRGDKRVEFHVKQNALYNRMTIRVKDNGIGIPINKVDKIFDRFYRVDKARTRKMGGTGLGLAISKEIVEAHNGRIWANSVEGQGTSIFITLPCEVLEDGDWDAE”: the protein production result is listed as “failed”.

Take “MQHYFYYIHSKHITPCFIFVDDVLSCLQRLNYQHLPAVSWSCFVSDQIIARVSQSLAKEQSLESLVRQLLEMLEMVTDMESTYLTKVDVEARLQHIMFARNSQKMHIPENFTVSWDYSLCKRAIDENCFFSDEVPDRWGDCIAARNLGITTFLSTPIHLPDGSFYGTLCAASSEKRQWSERAEQVLQLFAGLIAQYIQKEALVEQLREANAALIAQSYTDSLTGLPNRRAIFENLTTLFSLARHLNHKIMIAFIDLDNFKLINDRFGHNSGDLFLIQVGERLNTLQQNGEVIGRLGGDEFLVVSLNNENADISSLRERIQQQIRGEYHLGDVDLYYPGASLGIVEVDPETTDADSALHAADIAMYQEKKHKQKTPFVTHSALHS”: the protein production result was “failed”.

For the sequence “MDHQFGYGVEVTGLSPSVTHNDLIDFFSFSGTIQDIDIVRSGEQACTAYVMFKDSYSQETAVLLTGATILDQRVCITRWGQHHEEFDFWNATSRGFEDESDSQHYAQRSEFNAGEAVTKAQEVVKIMLATGFVLGKDALSKAKAFDESHGVSAAAVARVSQLEQRIGLTDKIFTGLEAVRMTDQRYHVSDTAKSAVFATGRTAAAAATSVVNSSYFSSGALWLSGALERAAKAASDLGTRGSRQ”, the protein production entry was “failed”.

For “MGFNVKTPLLATDVIIRLWDGENFKGIVLIERKYPPVGLALPGGFVEVGERVEEAAAREMREETGLEVRLHKLMGVYSDPERDPRAHVVSVVWIGDAQGEPKAGSDAKKVKVYRLEEIPLDKLVFDHKKIILDFLKGNY”, the protein production result is listed as “not failed”.

“MDVQFAILAFTSLFSILNPFGVIPTYLVLTSQYSKVEKIKIIRKSMLAAFIILMMFALLGNQIIGFFGISIPAIKITGGVLLFLIALDMIQGNTSKVEKSPKLESHLKSHAEEIEEMDEIAIVPLTVPLLTGPGSISAVIAMMAQTSDFDGKISVIIAISLCIIISYFVLKFSKDLEKMLGKIGFKVLTKMMGLVLTAISIQMALDGILMVFG”: the protein production entry is “failed”.

In the case of “MVSSSNNSSIAKAFVTVAAIFIIFAGIKTAANILVPFLLSVFIAIICNPLINKASEYKIPKAVSVIFVIVVFVTMAVFLTGLVGSSLNELSQQIPQYRIQLKEQFTWLTSFLNSHDIQLSSSIVTEYFDPAAAMGLAADMLSSFGSVMTNLFLIILTVVFMLFESSTIPHKLHLALDDPQMRLNQIERFLSSVNQYIAIKTLVSIATGCIVSLMLWIFGLDFFLLWGVLAFLLNYIPNIGSIIAAVPPMTLAILQLSIGEAGAIGLGFVLINMVMGNIIEPRYLGKGLGLSTLVVFLSLIFWGWLLGTVGMLLSVPLTMILKIGLESSPEGRWLAVMLSDEVELVDKTEQALLD”, the protein production entry was “failed”.

As for “MFKRFVLSLAFLIMAAVVSFQVIFTVPEHPQIITQTGSEITEDIRCIEFSGAKALDDNGELNLLVWNIYKQNRANWQSELELFSADKQLLLLQEASMTDSFKQWLVDGSWVSNQVSAFKALGSGAGVISIAQKQPIKACAYTSKEPWLRLPKSALYSQYRLSNGESLAVINVHAINFTVGTEEYTSQLSALETLLKQHSGPIVFAGDFNSWSEYRITAMKQALREANLREVQFSPDHRTQFITGLPLDHVFYRGLTLKNAKAPQSDASDHNPLLVSFTLND”, the protein production entry was “failed”.

Take “MELNAVKSSYARWAPIYDKTFGAITNVGRHAAVDYINAHDATELLEVGVGTGLSLPNYRPGLKVTGIDFSEEMLAKARAKVESLGLGHVQSLRQMDARDLDFADASFDVVAAMHIISVVPEPERVMAEMARVCKPGGLIVITNHFARDSGMLARVERFAAPFANLLGWHPDFEISSVLKQPDLTVIERKSLPPMGMMTFLVLQKCELEHHHHHH”: the protein production result is listed as “not failed”.

Consider “MEAPTVLDVGCGDGARTLANLPPRSVGLDFSRAGLDLAAETVPDSRLVQGDMGSLPVTTDSVDAITAYHAVFHVQRDQHPEVYREFARVLRPGGTVLMTLPSGQFETVRRGWMGGSMFFSAPGRRATLDQLADAGFTETETVTATDPLGSDSEFVFATLADALEHHHHHH”, for which the protein production result is recorded as “failed”.

“MLDNHDLIVSSVEKNSPAWDAGLTTEDVIVAIDGLRLLDNELDNRLKDFKPKQTITVTYFRRDKLITSRLKLAAIPKNKLKIIPIAKASVLEHHHHHH”: the protein production result is reported as “not failed”.

“AAIYHLDVSGQATIRFRPPAFLKTLVSEHAGTTRLNTLSMIHHDDRHMLSNAYSKLREAKHSLTLVYRIVTPEGKLHWIEDHMRSSFSDD”: the protein production result is on record as “failed”.

Turning to “MPKEQPLYLQIVDDLEVKIKKSMTENDKLLSERELSDLYGVSRITIRLTLKELELRDLIYKKQGKGTYVSGIKEPATDLSSTYSFTEQMKKMGKTPKTEILSFEQYQVTPYLSGLLELDPDTEVFELERLRIADDMPLMFERSYIPAQPFQGLSIADLKRKALYDIFAKDYQETIRLAEEEFYASIALDYEAGLLGIKKGDPVLHIIRKTYNDKNILIELTFSIARADQFRYRVQHHPNG”, the protein production result is “failed”.

In the case of “MSKPFMFEKPFGMRDTLPEWYKTKKNICDQMTEEINLWGYDMIETPTLEYYETVGVVSAILDQQLFKLLDQQGNTLVLRPDMTAPIARLVASSLKDRAYPLRLAYQSNVYRAQQNEGGKPAEFEQLGVELIGDGTASADGEVIALMIAALKRAGLSEFKVAIGHVGYVNALLMDVVGNEQRADRLRRFLYEKNYVGYREHVKSLNLSTIDKSRLMNLLSLRGGRAAIEEARGLIQTEKGKTALAEMTKLYEVLESYGASEYVKFDLTLVLHMSYYTGVVFEGYGNRLGVPLCSGGRYDELLSKFHRPAQATGFGVRIDLLVEALNGEIISNGHEQTCILFSNERRFEAIELARKKRANGEAVVLQDLAGVTDVDAMSSNYQDVIYCIGTAGRGGEDA”, the protein production entry is recorded as “not failed”.

“MNYRLIPALFLIVMGALFLLDNLGLAHMDVGNLIATWWPVFLIAAGVRQLLRYRQRAAATC”: the protein production result is “failed”.

Regarding “MNHPAHHGPTVTPKRRHPDSTGAAPVGIVIATRNRRASLAVTVRNLLALPERPDVLVVDNASTDDTRAMLARDFPQVRVLPLPYNRGALARTHGVRALDTPYVAFSDDDSWWAPGALGAAARHFDDHPRLGLLSARTLVGPGDAADPLNDLLADSPLGTATDLPGTQVLGFLGCAAVARRTAYLDAGGYHPLLFFGGEETLLAYDLAARGWGVTHCPDVIAHHHPHPRPRTGRPAVVRRNALLTAWLRRPLPHALARTRALAADARRDPHARHALRETLTRLPAALRARRPLPPHVERAARLLDGADGPDGPGGAVSLEHHHHHH”, the protein production result is “not failed”.

In the case of “MNANYVSKKPYIVTIACTKGGSAKSTNAANIGAFCADHGLRTLLIDTDTQPTLSSYYSLAKTAPGGIYEFLLQRDVEPSHIVSQTSIKNLDLIQSNDPSNNVSHMLRNAPDGSIRFSHLIKSINNYDVIVIDTRGTRDITVDMSVLAADILFCPILPQILSAKEFIRGTIGMYQDLQTFESFGFKLPPLKAIANGVDNTNDVKFVMQKLHTLFANTFDESKTLLDFSIPYHVAYREAVTYALPVYRHSAVEYPVMQQLCCLLLPQFKENFEKPMQRGLEHHHHHH”, the protein production result is reported as “not failed”.

With “MTSIWGQIQHILQNTLAPGLFKVWISPLAGEVDGSTLRVEAPNEFVAGWVRDRLFEDIRTAACGVIGDTVEVVVTAGAPAAAAPRPVLAPRPAVVEVVPTAAPVPSVVPAVEARPSGHAPRRLSAETQQAQEQLGLPLDWAPVPQSRTNWRFSFDDFIVGPNNELACAAARGMCRDGLMTDTLFLSSGPGLGKTHLLHAVGRSLCESSNRSNPNVAYLTAEEFASRLIAALKARDVERFKARYRDVDVLLLEDVHFLQGKEKMQDEVLATVKALQSRGSRIVFSSSFAARDLKNVDNQLVSRFCSGFLAGIERPDFDTRRRILREKARIYQVMLPDNVTDLLAERISTDVRQIESCLHNLILKAKLLNRQISLEMAFEIIGNYAQAETQLDFEGIVRMVCEGFGLSPEQLNSRSRKREYVVARNAAYLLARKHTDLSLKEIGDRFNRRHSTVLKGITALEREMNRETPLGRQVANTISLLERNGRITHARH”, the protein production result is reported as “failed”.

With “TLTVNGPPIISSTQTQHALHGEKGQIKCFIRSTPPPDRIAWSWKENVLESGTSGRYTVETISTEEGVISTLTISNIVRADFQTIYNCTAWNSFGSDTEIIRLKEQGSEM”, the protein production result is listed as “not failed”.
